Source: PMC8514162
Like-named read-outs stand apart in the source and are kept apart here.

Columns and labels:
Assay in all cases: native MS
[1] = molecular target: haptoglobin Hp 2-1 isoform HL(L*H)LH (human) (UniProt P00738)
[2] = molecular target: haptoglobin Hp 1-1, tetramer H-L-L-H (human) (UniProt P00738)
[3] = molecular target: haptoglobin Hp 2-1 isoform HL(L*H)2LH (human) (UniProt P00738)
[4] = molecular target: haptoglobin Hp 2-1 isoform HL(L*H)LH (human) (UniProt P00738); remark: listed apart in the source
[5] = molecular target: haptoglobin Hp 1-1, tetramer H-L-L-H (human) (UniProt P00738); remark: listed apart in the source

Substance: semi-hemoglobin dimer α*β* of hemoglobin (Hb) (from UniProt P69905 1-142; P68871 1-147) (complex)
- stoichiometry N (semi-Hb dimers per HL(L*H)LH) [1]: 3
- stoichiometry N (Hb dimers per Hp molecule) [2]: 2
- stoichiometry N (semi-Hb dimers per HLLH) [2]: 2
- stoichiometry N (α*β* dimers per HLLH) [2]: 2
- stoichiometry N (dimeric Hb subunits per HL(L*H)2LH) [3]: 4
- stoichiometry N (semi-Hb dimers per HL(L*H)LH) [4]: 3
- stoichiometry N (α*β* dimers per HLLH) [5]: 2
